Literature values, collected in patent publication US20230146896A1, “COMPOSITION AND METHOD FOR TREATING ALZHEIMER'S DISEASE” (Eisai R&D Management Co., Ltd., priority 2016, published 2023).

Details: previous studies, intravenous infusion; typically occurred on the first infusion

B1: BAN2401: humanized IgG1 monoclonal version of mAb158; heavy chain variable SEQ ID NO:1, light chain variable SEQ ID NO:2 (antibody, V domains shown)
VH: EVQLVESGGGLVQPGGSLRLSCSASGFTFSSFGMHWVRQAPGKGLEWVAYISSGSSTIYYGDTVKGRFTISRDNAKNSLFLQMSSLRAEDTAVYYCAREGGYYYGRSYYTMDYWGQGTTVTVSS
VL: DVVMTQSPLSLPVTPGAPASISCRSSQSIVHSNGNTYLEWYLQKPGQSPKLLIYKVSNRFSGVPDRFSGSGSGTDFTLRISRVEAEDVGIYYCFQGSHVPPTFGPGTKLEIK
  adverse events (infusion reactions): infusion reactions were common AEs
